From patent US11692029B2, “Therapy for glaucoma and optic neuropathy by targeting colony stimulating factors” (The Schepens Eye Research Institute, Inc., priority 2018, dated 2023)
Entries after “also recorded” stand apart in the source; their conditions may differ.

Experiments:
[1] = tested on: retinal ganglion cells (RGC); experiment: RGC loss (anti-Brn3a RGC counts, whole-mount retina) in microbead-induced glaucoma mice; assay type: in vivo; conditions: MB-injected high-IOP mice, intravitreal treatment, versus vehicle/saline-treated mice
Text: (§1) FIG. 3A is a line graph showing the intraocular pressure (IOP) level at baseline and up to 42 days/6 weeks post-MB injection of mice receiving either intravitreal injections of CSF1R Ab, CSF2, CSF1R Ab+CSF2 or control vehicle at D3 and D7. FIG. 3B is a bar graph showing the ratio of positive scotopic threshold response (pSTR) of glaucoma eye to contralateral normal eye. FIG. 3C is a bar graph showing the contrast sensitivity (CS) of the OMR. FIG. 3D is a bar graph showing Retinal Ganglion Cells (RGC) density of control (Ctr), vehicle (Veh) and CSF1R Ab, CSF2 and CSF2+CSF1 Ab-treated groups. Note Ctr group are the uninjured eyes. FIGS. 3E-3G are photomicrographs of Brn3a+RGCs (red) at 6 week post-injection of microbeads. In these figures (FIGS. 3A-G), ‘#’ and ‘*’ represents statistical analysis comparing to control and vehicle group, respectively. *, ** and *** represent P value <0.05, 0.01 and 0.001, respectively. #, ## and ### represent P value <0.05, <0.01 and <0.001.
(§2) FIG. 7 is a schematic representation showing the experimental design. […]
Microbeads (MB) were injected into the anterior chamber of adult B6 mice to induce high IOP. The expression of CSF1/2 and their receptors was examined by immunostaining and quantitative polymerase chain reaction (qPCR) at different time points after MB injection. […]

[2] = tested on: microglia; experiment: microglial activation in a glaucoma mouse model; assay type: in vivo, mice; conditions: intravitreal injection
Text: Activation of microglia plays a critical role in the progression of neurodegeneration in glaucoma. Colony stimulating factor 1 (CSF1) and colony stimulating factor 2 (CSF2) are involved in glaucomatous neuron loss by regulating microglia function.

[3] = tested on: visual function; experiment: visual function (contrast sensitivity and visual acuity) in microbead-induced glaucoma mice; assay type: in vivo; conditions: MB-induced glaucomatous mice, intravitreal treatment, 4 and 6 weeks after MB injection, versus vehicle
Text: as §1, with “<0.001. […] FIG. 7 is a schematic representation showing the experimental design. It was hypothesized that inhibiting CSF1 by administration of CSF1R antibody (CSF1R Ab) and/or promoting CSF2 signaling protect RGC against glaucomatous damage. Four experimental groups were proposed: following MB-injection to induce high IOP, mice received treatment of vehicle (PBS), CSF1R Ab, CSF2, or CSF1R Ab+CSF2 were studied. […]” for “<0.001.”

[4] = tested on: retinal function (pSTR); experiment: positive scotopic threshold response (pSTR) in microbead-induced glaucoma mice; assay type: in vivo; conditions: MB-induced glaucomatous mice, intravitreal treatment, 4 and 6 weeks after MB injection, versus vehicle
Text: as §1, §2
The function of retinal ganglion cells (RGCs) can be non-invasively assessed in experimental and genetic models of glaucoma by means of variants of the ERG technique that emphasize the activity of inner retina neurons. […]

[5] = listed as CSF2 recombinant protein

B1: CSF2: Granulocyte-macrophage colony-stimulating factor recombinant protein; exemplary source Peprotech Recombinant Murine GM-CSF, Cat #: 315-03 (protein, UniProt P01587 18-141, looked up)
Granulocyte-macrophage …: APTRSPITVTRPWKHVEAIKEALNLLDDMPVTLNEEVEVVSNEFSFKKLTCVQTRLKIFEQGLRGNFTKLKGALNMTASYYQTYCPPTPETDCETQVTTYADFIDSLKTFLTDIPFECKKPGQK
In the case of B1, the RGC loss [1] is reported as “decreased RGC loss; also recorded: reduced or attenuated glaucomatous RGC loss”, the RGC loss [1, 5] is reported as “protected the loss of retinal ganglion cells (RGCs)” and the microglial activation [2] is reported as “significantly suppressed microglial activation”. The “visual function (vision contrast sensitivity and visual acuity)” value [3] was “visual function increased”, the “visual function (vision contrast sensitivity and visual acuity)” value [3, 5] was “protected the loss of retinal ganglion cells (RGCs) and vision function” and the pSTR amplitude [4] was “pSTR increased”.
